US20250320288A1, “METHOD OF TREATING VITILIGO WITH INTERFERON-GAMMA ANTIBODY” (Elixiron Immunotherapeutics (Hong Kong), priority 2022, published 2025)
“Also recorded” adds a separate entry of the source.

Tests used:
primary melanocytes = test: Melanocyte cell viability after IFN-γ, chemokines, cell death inhibitors or 2A6Q, Day 2 and Day 7; type: cell-based, human; details: melanocytes with IFN-γ, up to seven days; listed as 2A6Q
Procedure: To determine cell viability of melanocyte after treatment with IFN-γ, CXCL9, CXCL10, CXCL11, at Day 2, and Day 7, the cells were collected and seeded into 96-well plates. After adhesion, cells were treated with IFN-γ (0, 10, 100 ng/ml) with different compounds: 2A6Q, CXCL9, CXCL10, CXCL11, ROS scavenger (NAC), necroptosis inhibitor (NEC-1), pyroptosis inhibitor (VX-765), apoptosis inhibitor (QVD-OPH), Ferroptosis inhibitor (Liproxstaitin-1, Ferrostatin-1, DFO). Cell viability was measured using a CellTiter-Glo luminescent cell viability assay kit (Promega) according to the manufacturer's protocol. The […] of the final reaction product was measured using a luminometer (SpectraMax® iD3 Multi-Mode Microplate Reader (Molecular Devices). After calculation, the viability of control cells was 100%, and all others were normalized to control and shown as relative cell viability (%). Treatment dosage N-acetylcysteine (NAC; 0.05 mM, 1 mM), Necrostatin-1 (NEC-1; 20 μM, 2 μM), Belnacasan (VX-765; 50 μg/mL, 5 μg/mL), Quinoline-Val Asp-Difluorophenoxymethylketone (QVD-OPH; 10 μM, 2 μM), Liproxstaitin-1 (10 μM, 5 μM, 1 μM, 0.05 μM), Ferrostatin-1 (5 μM, 1 μM), Deferoxamine (DFO; 10 μM, […], 1 μM, 0.05 μM), 2A6Q (10 μg/mL), CXCL9 (10 ng/mL, 10 pg/mL), CXCL10 (10 ng/ml, 10 pg/mL), CXCL11(10 ng/mL, 10 pg/mL).

[1] = 4-week repeated intravenous infusion GLP toxicology of EI-001; type: in vivo
Procedure: Materials and methods: A total of forty Cynomolgus monkeys (20 females and 20 males) were assigned into 4 groups with 5 animals/gender/group and given EI-001 (2A6Q) (10, 30 and 100 mg/kg) or vehicle (Formulation Buffer) in a volume of 10 mL/kg via 30-min intravenous infusion, once weekly for a total of 5 doses, followed by a 6-week recovery phase. All animals were scheduled to be necropsied at the end of main phase (on Day 30) and at the end of recovery phase (on Day 72). During the study, the following parameters were evaluated: clinical observations, ophthalmology, body weight, food consumption, body temperature (rectal temperature), clinical pathology (hematology, coagulation, plasma chemistry, lymphocyte immunophenotype and urinalysis), gross pathology, organ weight and histopathology. toxicokinetics, immunogenicity, local irritation assessment, cardiovascular (ECG, body surface temperature, blood pressure), respiratory and central nervous system safety pharmacology assessments were conducted concurrently. […] The immunogenicity samples were collected on pre-dose on Days 1, 15, 22, and Days 57, 71.

B1: EI-001: human monoclonal anti-IFN-γ neutralizing antibody; VH SEQ ID NO: 165, VL SEQ ID NO: 113; N76Q removes VH glycosylation site (antibody, listed as Homo sapiens, V domains shown)
VH: EVQLVESGGGLVKPGDSLTVSCVASGFTFSNYFIHWVRQAPGKGLEWVATISGRTKYMFYSDSLRGRFTVSRDNAQNSVYLHMSSLRGEDTALYYCVRGYDHSDSNSAADLLHWGRGTLVTVSS
VL: NFMLTQPLSVSGYPGKTIVISCVRSSGSVASHYVQWFQQRPGSAPAMVIYEDSHRPSGIPDRFSGSVDASSNSASLTISGLKTEDEADYFCQSYYGNNQVLFGGGTKLTVL
modifications: Recombinant variant antibody sequence
notes: human monoclonal anti-IFN-γ neutralizing antibody; N76Q removes VH glycosylation site
rescue of IFN-γ induced melanocyte cell death (cell viability) (primary melanocytes): more profound than all other cell death inhibitors; also recorded: rescue cell viability of melanocyte in a time-dependent manner
survival of treated animals ([1]; 10, 30 and 100 mg/kg once weekly): survived to their scheduled necropsy
tolerability after repeated intravenous infusion for 4 weeks ([1]; 10, 30 and 100 mg/kg once weekly, 5 doses): well-tolerated
mortality rates or susceptibility to infections among the treated monkeys ([1]; compared to prior NI-0501 toxicology studies): did not increase
drug adverse events in in vivo toxicology ([1]; cynomolgus monkey, in vivo): does not cause any significant drug adverse events
observable symptoms of infection ([1]; cynomolgus monkey, in vivo): did not induce
only detected changes related to administration ([1]; cynomolgus monkey, in vivo): seen on a microscopic level
